In article PMC11697773:

Tests used:
[1] = target: human neonatal Fc receptor (FcRn) (human) (UniProt P55899); test: BLI; Octet; biotinylated human FcRn on streptavidin-coated biosensors, antibody soluble; equilibrium binding; PBSA pH 5.6; tips regenerated in PBSA pH 7.4
[2] = target: human Fcγ receptor I (FcγRI) (human) (UniProt P12314); test: BLI; Octet; biotinylated human FcγRI on streptavidin-coated biosensors, antibody soluble; equilibrium binding; PBSA pH 7.4; tips regenerated in 0.1 M glycine pH 3.5
Sequence of human Fcγ receptor I (FcγRI) (human) (P12314 16-292): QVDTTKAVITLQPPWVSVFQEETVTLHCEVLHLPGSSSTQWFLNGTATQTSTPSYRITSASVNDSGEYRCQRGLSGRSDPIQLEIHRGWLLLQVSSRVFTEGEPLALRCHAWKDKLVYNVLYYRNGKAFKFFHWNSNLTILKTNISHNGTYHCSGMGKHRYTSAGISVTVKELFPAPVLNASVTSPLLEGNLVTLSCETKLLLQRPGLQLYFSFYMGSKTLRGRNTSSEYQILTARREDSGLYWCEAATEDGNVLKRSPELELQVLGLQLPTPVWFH

Substance	Kd [1] [nM]	Kd [2] [nM]
F5111 antibody, N297A	132	105
trastuzumab N297G + YTE + SEFL (aglycosylated variant) (antibody)	20.4	–
